Reference: paper PMC5014550, “Mitochondrial Bol1 and Bol3 function as assembly factors for specific iron-sulfur proteins” (eLife, 2016)

B3: human GLRX5 (residues 32-157) with N-terminal His-tag (natural protein, UniProt Q86SX6 32-157, looked up)
chain: AGSGAGGGGSAEQLDALVKKDKVVVFLKGTPEQPQCGFSNAVVQILRLHGVRDYAAYNVLDDPELRQGIKDYSNWPTIPQVYLNGEFVGGCDILLQMHQNGDLVEELKKLGIHSALLDEKKDQDSK
notes: Chemically reconstituted with a [2Fe-2S] cluster (holo form, >85% holo); holo-GLRX5 alone eluted as a homodimer; also called holo-GLRX5; source: E. coli BL21 (DE3), pET-Duet1, purified (HisTrap HP, Superdex 200 gel filtration)

Key:
[1] = target: T1, human NFU1 (residues 57-254) with N-terminal His-tag (human, UniProt Q9UMS0 57-254); test: MST; holo-NFU1, anaerobic
T1 chain: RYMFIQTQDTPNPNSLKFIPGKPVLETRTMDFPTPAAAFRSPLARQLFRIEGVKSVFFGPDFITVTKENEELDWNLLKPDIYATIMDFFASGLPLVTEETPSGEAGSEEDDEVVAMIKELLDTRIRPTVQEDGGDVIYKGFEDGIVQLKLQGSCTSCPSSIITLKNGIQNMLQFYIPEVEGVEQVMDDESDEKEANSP

[2] = target: T1, human NFU1 (residues 57-254) with …; test: MST; apo-NFU1, anaerobic
[3] = target: T2, human NFU1 (residues 57-254) with N-terminal His-tag (human, UniProt Q9UMS0 57-254); test: MST; 200 nM NT-647-labeled BOLA1 or BOLA3, titrated with unlabeled apo-NFU1 (200 µM to 6.1 nM); buffer T (50 mM KPi pH 7.4, 150 mM NaCl, 5% glycerol, 0.05 mg/ml BSA, 0.05% Tween20), 21°C, anaerobic; conditions: both partners purified
T2 construct: Used as apo form or chemically reconstituted holo form carrying a [4Fe-4S] cluster; the assay's format says which; also called apo-NFU1; holo-NFU1; source: E. coli BL21 (DE3), pET-Duet1, purified (HisTrap HP, Superdex 200 gel filtration)
T2 sequence (looked up): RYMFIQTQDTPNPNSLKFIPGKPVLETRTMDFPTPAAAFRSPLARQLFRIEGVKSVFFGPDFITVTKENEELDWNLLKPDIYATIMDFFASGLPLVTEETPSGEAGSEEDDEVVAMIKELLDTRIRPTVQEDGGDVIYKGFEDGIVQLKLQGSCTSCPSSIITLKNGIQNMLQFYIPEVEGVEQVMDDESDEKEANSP

[4] = target: B3; test: SEC; gel filtration in buffer R of holo-GLRX5 alone, co-reconstituted equimolar GLRX5-BOLA1 and holo-GLRX5-BOLA3, recorded at 420 nm and 280 nm; fractions analysed by Coomassie and immunostaining; conditions: both partners purified
[5] = target: T2, human NFU1 (residues 57-254) with …; test: MST; 200 nM NT-647-labeled BOLA1 or BOLA3, titrated with unlabeled chemically reconstituted holo-NFU1 carrying a [4Fe-4S] cluster (200 µM to 6.1 nM); buffer T, 21°C, anaerobic; conditions: both partners purified
[6] = target: the molecule itself; test: SEC; gel filtration in buffer R of holo-GLRX5 alone, co-reconstituted equimolar GLRX5-BOLA1 and holo-GLRX5-BOLA3, recorded at 420 nm and 280 nm; fractions analysed by Coomassie and immunostaining
[7] = target: T3, human GLRX5, protein used for NMR (human, UniProt Q86SX6 32-157); test: NMR titration; 1H-15N HSQC; 15N-labeled BOLA1 or BOLA3 titrated with unlabeled apo-GLRX5 and vice versa; 15N R1 and R2 relaxation on the final mixtures; degassed buffer N (50 mM phosphate pH 7, 5 mM GSH, 5 mM DTT), 10% D2O, 298 K; conditions: both partners purified
T3 construct: human mitochondrial monothiol glutaredoxin GLRX5; Used as apo form with 5 mM GSH, or chemically reconstituted with a [2Fe-2S] cluster; the assay's format says which; also called apo-GLRX5; holo-GLRX5; source: produced as previously reported (Banci et al., 2014)
T3 sequence (looked up): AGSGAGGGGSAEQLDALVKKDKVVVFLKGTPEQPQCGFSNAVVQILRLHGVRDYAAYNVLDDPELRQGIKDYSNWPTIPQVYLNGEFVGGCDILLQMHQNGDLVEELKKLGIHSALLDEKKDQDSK

B1: human BOLA1 (residues 30-137) with N-terminal His-tag (natural protein, UniProt Q9Y3E2 30-137, looked up)
chain: GPVEAAIRTKLEEALSPEVLELRNESGGHAVPPGSETHFRVAVVSSRFEGLSPLQRHRLVHAALAEELGGPVHALAIQARTPAQWRENSQLDTSPPCLGGNKKTLGTP
notes: Labelled with NT-647 dye in MST; source: E. coli BL21 (DE3), pET-Duet1, purified (HisTrap HP, Superdex 200 gel filtration)
[1]
  Kd: 2140 nM
[2]
  Kd: 3590 nM
[3]
  Kd: ~3000 nM
[4]
  binding result: binds

B2: human BOLA3 (residues 25-107) with N-terminal His-tag (natural protein, UniProt Q53S33 25-107, looked up)
chain: MFATQTEGELRVTQILKEKFPRATAIKVTDISGGCGAMYEIKIESEEFKEKRTVQQHQMVNQALKEEIKEMHGLRIFTSVPKR
notes: as for B1
[2]
  Kd: 3570 nM
[3]
  Kd: ~3000 nM
[5]
  Kd: 800 nM

## B3
[6]
  stoichiometry N: 2

B4: human BOLA1 (residues 21-137), NMR construct (natural protein, UniProt Q9Y3E2 21-137, looked up)
chain: QGSAGSGAIGPVEAAIRTKLEEALSPEVLELRNESGGHAVPPGSETHFRVAVVSSRFEGLSPLQRHRLVHAALAEELGGPVHALAIQARTPAQWRENSQLDTSPPCLGGNKKTLGTP
notes: human BOLA1, residues 21-137, construct for NMR; 15N- or 13C,15N-labelled where observed by NMR; His-tag cleaved by tobacco etch virus protease; also called 15N-labeled BOLA1; source: E. coli BL21(DE3)GOLD, pETG20A vector, purified; not shown: His-tag, N-terminal, cleaved
[7]
  stoichiometry N: 1

B5: human BOLA3 (residues 27-107), NMR construct (natural protein, UniProt Q53S33 27-107, looked up)
chain: ATQTEGELRVTQILKEKFPRATAIKVTDISGGCGAMYEIKIESEEFKEKRTVQQHQMVNQALKEEIKEMHGLRIFTSVPKR
notes: human BOLA3, residues 27-107, construct for NMR; 15N- or 13C,15N-labelled where observed by NMR; His-tag cleaved by tobacco etch virus protease; also called 15N-labeled BOLA3; source: E. coli BL21(DE3)GOLD, pET15 vector, purified; not shown: His-tag, N-terminal, cleaved
[7]
  stoichiometry N: 1
